The results in this text go back to the DeepSol protein solubility set.

A short description of the series: soluble on expression in E. coli; label from the status in PepcDB or PDB records.
Regarding “MAGLKRRASQVWPEEHGEQEHGLYSLHRMFDIVGTHLTHRDVRVLSFLFVDVIDDHERGLIRNGRDFLLALERQGRCDESNFRQVLQLLRIITRHDLLPYVTLKRRRAVCPDLVDKYLEETSIRYVTPRALSDPEPRPPQPSKTVPPHYPVVCCPTSGPQMCSKRPARGRATLGSQRKRRKSVTPDPKEKQTCDIRLRVRAEYCQHETALQGNVFSNKQDPLERQFERFNQANTILKSRDLGSIICDIKFSELTYLDAFWRDYINGSLLEALKGVFITDSLKQAVGHEAIKLLVNVDEEDYELGRQKLLRNLMLQALPLEHHHHHH”, the “soluble on expression in E. coli” value is recorded as “not soluble”.

Turning to “MSGKLYICPTPIGNLEDITYRTLRTLKEVDLIAAEDTRHSIKLLNHFEISKPLTSYHEHNKDSKGDYLINKLIDGENIALISDAGMPGISDPGEEIIKQAIQNNIEIEVLPGA”, the “soluble on expression in E. coli” value is “not soluble”.

As to “MTTTSAFMLNVRLDNVAVVAIDVPGEKVNTLKAEFATQVRAILKQIRENKALQGVVFISAKADNFIAGADINMIGHCQNAQEAETLARQGQQLMAEIQALPVPVIAAIHGACLGGGLEMALACHRRICTDDVKTVLGLPEVQLGLLPGSGGTQRLPRLVGVSTALDMILTGKQLRARQALKAGLVDDVVPQTILLEAAVELAKKERLAQRTLPVRERILAGPLGRALLFRLVRKKTAQKTQGNYPATERIIDVIETGLAQGSSSGYDAEARAFGELAMTPQSQALRAIFFASTEVKKDPGSDAPPGPLNSVGILGGGLMGGGIAWVTACKGGLPVRIKDINTQGINHALKYSWDLLETKVRRRHIKASERDKQLALISGSTDYRGFSHRDLVIEAVFEDLPLKQQMVAEVEQNCAAHTIFASNTSSLPIGDIAANAARPEQVIGLHFFSPVEKMPLVEVIPHASTSAQTIATTVKLAKKQGKTPIVVSDKAGFYVNRILAPYINEAIRMLTEGERVEHIDAALVKFGFPVGPIQLLDEVGIDTGTKIIPVLEAAYGERFSAPANVVASILNDDRKGRKNGRGFYLYGEKGRKSKKQVDPAIYKLIGVQGQSRLSAQQVAERCVMLMLNEAARCFDEKVIRSARDGDIGAVFGIGFPPFLGGPFRYMDALGPGEMVATLQRLAALYGPRYAPCEQLVRMAERREHFWTNGETDQGN”, the “soluble on expression in E. coli” value is listed as “not soluble”.

Consider “SEAIQTLLDRKLPDEELEQINQACLSVKGVLGVHQLRTRMSGPTRFIQLHLELDDNLRLIEAHYIADKVEDNLLALFPEADVLIHQDPLSVVFGPEKEQKAQDW”, for which the “soluble on expression in E. coli” value is “not soluble”.

“MAEQQPSKEEKKEDKKDEKEEELPAPSVQQSIRQLPKIQITDDDKGEQLPECTEGEWDASDEPFSAELLNVKNAPNKVSVFSGPYRSKETIEKIKKFRAAMPPVIPIIDERPDKLAQMMSRIFSEIIDGRDLSKIKVFFFIK”: the “soluble on expression in E. coli” value is “not soluble”.

Regarding “MAHHHHHHMYDSRSSGVHDVAPRDGVDFMYEGPQQVLPGAHPLPLFHPDNSVTRPPVSPYLPSPQRPHPYFTTELPELPHFQTTRPIVYTVGTMKQRIVAPVFDLANNVTHTRELDPFIFGFYPETEEMAKNLSYWLVRCQNFSSKWDYENREIWRKAKKNWPNTGMGMARVGDRKNHAHPWGAHSKPVKPWNLLMPTMDVKTWSKSNRMLVTLKMLQGKLQIVERLTLPEPTQEAYLQLCRTMGWDVRHKGGGALFMDGGSRLTPSSEYDRAFFFGSFFNGRNKLVRPTLLCDEPYDYNRTSSKARTKGPKGQKNPIPINRFNAYDALTHDTLIITEGALLQLEDEMYTHKLAMLPPHIRAQLPERGFLDSEVLGDVPPALQTVQMEAAARTEEAEQAMYAPYYDNPYHPWQDEGEASYAVDAVEGTVQRYIKSRKTSWAMLS”, the “soluble on expression in E. coli” value was “not soluble”.

Turning to “MKKYEIIFKKLEEDILKGHYQMGDYLPPEMELSQTYASSRDTVRKALQLLTKAGFIKTVQGRGSQIIKRERINFPVSQLTSYQELVKQLQMNVKTNVIAIDKLIVDEKLTKLTGFENKGLVWRITRQRVIDGVASILDTDYLDKALIPHMTREIAEHSIYDYLENQLKLDIAYAQKIITIDQVSQKDKILLDLDSENHVVSVKSKVYLSNQQQFQFTESRHKLEKFRFVDFARRHRD”, the “soluble on expression in E. coli” value is recorded as “not soluble”.

For “GPGSMVTTDINRDPVKRAMEDGTWRPGQKTAPQQQPQSLGVQCVAAPPQQAPCVPPLLVQYVPAPQAQYTPQPQLMQYVPQQPPQGYYQPRPPLPQPSYYPPGPPPPLQSGYYQQPPVPIQQVYYTQPPSQCYAPQPQYQY”, the “soluble on expression in E. coli” value is recorded as “not soluble”.

Regarding “MGSDKIHHHHHHMKIMVITKNILSETAFQNRLQHLDHQVFCTTCLIGEIKESHLFYRKFDAIILSETIPRKEQYLYLKELARVKTPLFLRSEDIPTSEELSISYQYGILNWLRLDATLDTLRENLLLAELNKPIQREDEKLDVEGIKLTAAERALLAVLYSTPKEHLPMERLCKLIYDTEETANNRKKMTKQLTKLNKKIQVGGFKKQGIQNTRYKGYKLHPQLLPYIGELFT”, the “soluble on expression in E. coli” value was “not soluble”.

Consider “MDKLNKITVPASQKLRQLQKMVHDIKNNEGGIMNKIKKLKVKAPPSVPRRDYASESPADEEQQWSDDFDSDYENPDEHSDSEMYVMPAEENADDSYEPPPVEQETRPVHPALPFARGEYIDNRSSQRHSPPFSKTLPSKPSWPSEKARLTSTLPALTALQKPQVPPKPKGLLEDEADYVVPVEDNDENYIHPTESSSPPPEKAPMVNRSTKPNSSTPASPPGTASGRNSGAWETKSPPPAAPSPLPRAGKKPTTPLKTTPVASQQNASSVCEEKPIPAERHRGSSHRQEAVQSPVFPPAQKQIHQKPIPLPRFTEGGNPTVDGPLPSFSSNSTISEQEAGVLCKPWYAGACDRKSAEEALHRSNKDGSFLIRKSSGHDSKQPYTLVVFFNKRVYNIPVRFIEATKQYALGRKKNGEEYFGSVAEIIRNHQHSPLVLIDSQNNTKDSTRLKYAVKVS”, for which the “soluble on expression in E. coli” value is “not soluble”.

Take “MWVEQIEKILTPRTPLILRCRNVPIPLIVSVFVECDMFDESLPISRAMKCLFVSVLCLSVGATAADAKPKIKVVNKTYSVNATTAQDLIQQMDARGPKGFWAYTDWYVKWTGGCDLSVSITYTMPKHKNEAKLDPELRKSWQSFVTALRKHEELHGAHGIQAAQEIEKSKCADGDSVIRKWSEQDKVLDQRTDHGKKDGVVLK”: the “soluble on expression in E. coli” value was “not soluble”.

For “GMNDRKILVAYFSCSGVTKAVAEKLAAITGADLYEIKPEVPYTEADLDWNDKKSRSSVEMRDALSRPAISGTLFHPEKYEVLFVGFPVWWYIAPTIINTFLESYDFAGKIVVPFATSGGSGIGNCEKNLHKAYPDIVWKDGKLLNGQITRDLVTEWFEKIRL”, the “soluble on expression in E. coli” value was “soluble”.

Take “MSLHEMSFAEAIIRNVLRFAEEKQAKTVTSVRVRVGELLLINPEQLQFCFSVASKGTIAEGAKLEISVERADIRCLLCGRELSKDEMLCECGGFAQVKGGKDFILESVVVEVEGHHHHHH”: the “soluble on expression in E. coli” value is “soluble”.

For the sequence “VPGTLLPRLPSEPGMTLLTIRIEKIGLKDAGQCIDPYITVSVKDLNGIDLTPVQDTPVASRKEDTYVHFNVDIELQKHVEKLTKGAAIFFEFKHYKPKKRFTSTKCFAFMEMDEIKPGPIVIELYKKPTDFKRKKLQLLTKKPLYLHLHQSLHKE”, the “soluble on expression in E. coli” value was “soluble”.

In the case of “MHHHHHHSSRENLYFQGTLPLWIGKPGDKPPPLCGAIPASGDYVARPGDKVAARVKAVDGDEQWILAEVVSYSHATNKYEVDDIDEEGKERHTLSRRRVIPLPQWKANPETDPEALFQKEQLVLALYPQTTCFYRALIHAPPQRPQDDYSVLFEDTSYADGYSPPLNVAQRYVVACKEPK”, the “soluble on expression in E. coli” value is recorded as “soluble”.

On to “MGSDKIHHHHHHMQQPLAYRMRPKTLKDVVGQQQLVGPGKIIARMVKAKRLSSMILYGPPGTGKTSIASAIAGSTKYAFRMLNAATDSKKQLQIVAEEAKMSGTVILLLDEIHRLDKTKQDFLLPHLESGRIILIGATTENPYISINPAIRSRTQIFQVFPLTDDDIQHAVERALADEKNGLGSYHVDLAPAAMHHLCTATNGDLRSALNGLELAVLSSSPADDGTIAISQQTIEECLQKKALSADKDGDAHYDVISAFQKSIRGSDVNAALHYLARLVEAGDLKSIMRRLMVIAYEDIGLANPAACAHTVAAVQAADQLGFPEARIPLADAVIELALSPKSNSGISAIDAALTTVRDGHFGDIPADIKDAHYQGAAKLGHGVGYDFPHDHPGDWVAQQYLPDAIKSAKYYEPKTNGRYETALAQQYEKLLKANERNR”, for which the “soluble on expression in E. coli” value was “not soluble”.

With “MSNPQPEKVRVVVGDDHPLFREGVVRALSLSGSVNVVGEADDGAAALELIKAHLPDVALLDYRMPGMDGAQVAAAVRSYELPTRVLLISAHDEPAIVYQALQQGAAGFLLKDSTRTEIVKAVLDCAKGRDVVAPSLVGGLAGEIRQRAAPVAPVLSAREREVLNRIACGQSIPAIAAELYVAPSTVKTHVQRLYEKLGVSDRAAAVAEAMRQRLLD”, the “soluble on expression in E. coli” value is reported as “soluble”.

On to “MAPRSILITGANRGIGLGLVKQFLKNEGIQLVIATCRNPSKADELNSIADSRLQIFPLEIDCDDSIKKLYENVDTLVGTDGLTVLINNAAICSVYEIEGQISRTYMRQQIETNSVSTAILTQNFIPLLKKASAKNGGEEYSTDRAAIVNISSGAASIGYIDDKQPGIYIAYRMSKSALNSFSKSCSVELAKYHILVTAMCPGWVKTDMGGENGWEEVDDATEKIMKSILKLGAAQHGAFINSSLEVYPN”, for which the “soluble on expression in E. coli” value is recorded as “not soluble”.

On to “MGSDKIHHHHHHMVYTTPWNRKIEFGRTMVMGIINVTPDSFFADSRKQSVLEAVETAKKMIEEGADIIDVGGMSTRPGSDPVDEEEELNRVIPVIRAIRSITDVPISVDTYRWRVALKALEAGADIVNDISGYQFEPDIVRVVSENNVPYVLMHIKGTPKTMQENPHYEDVVKEIKEYFTEKIEYLKEKGVNQIVLDPGIGFGKRYEDNLEILRRIDEFKELKLPILIGASRKSFIGITLGNVPPEERLEGTLAVTAYCTMKGVDIIRVHDVLPNKRVIRMMEAILWQRL”, for which the “soluble on expression in E. coli” value is “not soluble”.

In the case of “MGWCITVVHNTKWKAPPDTHIKCNYDAGFNVQNLDSTARWIIRNHDGIAQHWGSLQLDNTSTPLEAETKALLAALQQTWIRGYLRVIMEGDCETLTNLVSGSSSHNHLANLLDDIRIWAKKFSNVQFSFVRRGGNKVAHELAKLGCNSTCFYSDSCTLPIWLHQHYCNDFG”, the “soluble on expression in E. coli” value was “soluble”.

In the case of “ALCAICGDRATGKHYGASSCDGCKGFFRRSVRKNHMYSCRFSRQCVVDKDKRNQCRYCRLKKCFRAGMKKEAVQNERD”, the “soluble on expression in E. coli” value is given as “soluble”.

On to “MGSDKIHHHHHHMAVILFDIDGTLIDSTDQMTEAIHLAMEDMPHLVKPSKASVQSSYGLAGNAFWRKAIPDASENDIKEIRRKRHHHLEQTMQNQDVLFDGIRELLEQLTNQGHIVSTASNCGVHYLNLVLDSQNIRSYFTSPKCLESVNGKQKADILAAHREEFSEVDYLMVGDRSSDVEAARLQNMPVAICCFGFGTEQEWKTADHQLETPLDLLKFV”, for which the “soluble on expression in E. coli” value is on record as “not soluble”.

For “MQEISFRNDILPLKDKLFRLALRITLDRAEAEDVVQDTMIRVWNKRDEWSQFESVEAYCLIVAKNLAIDRSQKKEAQNVEITPEMEEEPDANSPYDQLVHDEKMNIINRLVNELPEKQRLIMQLRDIEGESYKKIATLLNLTEEQVKVNLFRARQKVKQRYLEIDEYGL”, the “soluble on expression in E. coli” value is “not soluble”.

Turning to “MGSDKIHHHHHHMGINKFNHEGYHDPTPHEALTNIMKKEKAEKKSAFKPLVYICSPYSGDVEGNIKKARSFCRFALDQNCIPIAPHLMFPQFMDDENPEERELAIFMDIVLMGKCSEVWVLGNTISTGMAREIEVAKKRRQTVRYFSPEHEEVESL”, the “soluble on expression in E. coli” value is given as “not soluble”.
